B1: EHEE_rd2_0196 (parent)
chain: TETRTFDSEEEAKKAQKEAEKQGRTVTITRRDDRWEVRFD

Variants of: B1
Test: folding stability dG (cDNA display proteolysis); higher = more stable
Conditions: PBS, room temperature

Folding stability dG [kcal/mol]: each site, then its substitutions
E10: A 2.86; C 3.04
S8: T 3.37; A 1.68; F 1.8; Y 1.64; Q 1.82; E 1.66; N 2.79; H 2.12; P 0.072; L 2.02; K 2.11; I 1.77; W 1.13; R 2.12; M 1.63; D 2.27; V 1.78; G 1.56
T1: C 2.81; F 3.38; K 2.76; Q 2.98; G 2.96; H 3.05; W 3.67; V 3.21; P 3.02; E 2.93; D 2.95; S 3.13; L 3.04; I 3.08; R 2.81; M 3.12; A 3.08; N 2.93; Y 3.48
E9: A 2.01; P 1.92; G 1.03; F 3.42; Q 2.18; M 2.38; T 0.823; H 2.28; D 1.47; W 3.38; S 1.42; I 2.73; V 2.25; K 1.66; Y 3.58; L 3.33; R 1.49; N 1.26
T3: D 1.93; M 3.03; N 2.33; W 3.06; A 2.66; R 2.54; P 2.73; I 3.35; L 3.15; Y 3.11; E 2.08; H 2.55; G 2.17; F 3.2; V 3.38; K 2.48; S 2.62; Q 2.46; C 3.22
E2: I 3.23; F 3.13; D 2.71; P 2.48; R 2.89; M 2.95; V 3.15; K 2.86; H 3.05; S 2.95; Y 3.19; L 2.98; G 2.79; N 2.94; Q 3.03; A 2.84; W 3.24; T 3.11
R4: E 2.36; A 2.65; L 3.43; D 1.6; T 2.54; W 3.49; V 2.99; S 2.3; K 2.9; F 3.15; G 1.85; P 1.25; Y 3.12; I 3.1; N 2.11; Q 2.93; H 2.77; M 3.24
D7: A 2.92; H 2.61; E 2.78; V 2.51; N 2.75; L 2.87; M 2.82; S 2.84; P 2.58; I 2.46; Q 2.54; R 2.46; T 2.76; K 2.52; W 3.19; F 3.22; Y 3.18; G 2.74
T5: H 2.71; C 2.5; F 3.75; A 2.43; G 1.73; E 2.57; V 3.37; K 2.09; N 2.3; L 3.46; D 2.04; R 2.35; M 3.42; W 4.03; I 3.42; Y 3.96; Q 2.63; P 1.24; S 2.81
F6: Q 0.251; E 0.25; R 0.142; P -0.092; L 1.22; A 0.553; K 0.23; G 0.049; D 0.02; N 0.174; M 1.24; W 1.28; I 0.565; V 1.65; H 0.637; Y 3.19; T 0.546; S 0.282

— the MegaScale stability set (Tsuboyama et al. 2023)
